Reference: patent US20220185876A1 (ATARGA, published 2022)
Substitutions are numbered along the chain they refer to.

B1: ExA11 (antibody, V domains shown)
VH: QVQLVQSGAELKKPGASVKVSCKASGYTFTNHYMHWVRQAPGQGLEWMGIINPISGSTTYAQKFQGRVTMTRDTSSSTAYMDLSRLTSDDTAVYYCARDIVDAFDFWGQGTTVTVSS
VL: AIQLTQSPSSLSASVGDRVTITCRASQGISSALVWYQQKPGQAPRLLIYDASSLESGIPARFSGSGSGTDFTLTISSLEPEDFAVYYCQQFNDYFTFGQGTKLEIK
notes: Monoclonal anti-FGF23 antibody
B2: ExA35 (antibody, V domains shown)
VH: QVQLLESGAVLARPGTSVKISCKASGYTFTNHYMHWVKQRPGQGLEWIGIINPITGSSSNAQKFQGRVTITRDTSTSTVFMELSSLRSEDTAVYYCARDIVDAFDFWGQGTLVTVSS
VL: B1 VL
notes: as for B1
B3: ExC50 (antibody, V domains shown)
VH: B2 VH with T28S, I100L
VL: B1 VL with A1D, E55Q
notes: as for B1
B4: ExC17 (antibody, V domains shown)
VH: EVQLVQSGAEVRKPGASVKVSCKASGYTFTNHYMHWVRQAPGQGLEWMGIINPISGSTSNAQKLQGRVTFTRDTSANTAYMELSGLIPEDTAIYYCARDIVDAFDFWGQGTLVTVSS
VL: B1 VL with A1D, E55Q, Y94L
notes: as for B1
B5: ExA28 (antibody, V domains shown)
VH: B4 VH
VL: B1 VL with L4M, Q42K, R45K, I58V, A60S, L73F, E79Q, F83I, V85T, Q99P
notes: as for B1
B6: ExA60 (antibody, V domains shown)
VH: B4 VH with T28S, I54N, F106Y
VL: B1 VL with L4M, Q42K, R45K, I58V, A60S, L73F, E79Q, F83I, V85T, Q99P
notes: as for B1
B7: Exc23.3 (antibody, V domains shown)
VH: B4 VH
VL: DIQMTQSPSSLSASVGDRVTITCKASQGISSALVWYQQKPGKAPKLLIYDASSLQTGVPSRFSGSGSGTDFTFTISSLQPEDIATYYCQQFNDYFTFGPGTKLEIK
notes: as for B1
B8: Exc23.1 (antibody, V domains shown)
VH: B4 VH
VL: B7 VL with Q55E, T96S
notes: as for B1
B9: ExA43 (antibody, V domains shown)
VH: B4 VH with D99E
VL: B1 VL
notes: as for B1
B10: Exc23 (antibody, V domains shown)
VH: B4 VH
VL: B7 VL with T96S
notes: as for B1
B11: Exc23.5 (antibody, V domains shown)
VH: B4 VH
VL: B7 VL with D1A, T96S
notes: as for B1
B12: Exc23.4 (antibody, V domains shown)
VH: B4 VH
VL: B7 VL with K24R, T96S
notes: as for B1
B13: Exc23.2 (antibody, V domains shown)
VH: B4 VH
VL: B7 VL with T56S, T96S
notes: as for B1

These binders were tested against T1, human FGF23 (human, UniProt Q9GZV9 25-251) (assay: cell-based or functional assay).
T1 sequence: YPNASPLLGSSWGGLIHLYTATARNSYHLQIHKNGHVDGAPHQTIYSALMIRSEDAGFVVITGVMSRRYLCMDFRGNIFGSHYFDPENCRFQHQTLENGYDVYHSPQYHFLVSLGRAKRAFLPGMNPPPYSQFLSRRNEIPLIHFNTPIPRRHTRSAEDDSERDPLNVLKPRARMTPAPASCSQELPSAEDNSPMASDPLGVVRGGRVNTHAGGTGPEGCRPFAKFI

Row | Binder | IC50, neutralisation of recombinant human FGF23-stimulated proliferation of NIH-3T3 cells (fluorescence) [µg/mL]
1 | B1 | 0.411
2 | B2 | 0.355
3 | B3 | 0.199
4 | B4 | 0.2
5 | B5 | 0.316
6 | B6 | 0.5

Target: T1, human FGF23
Assay: cell-based or functional assay
Remark: another data set of the same source

Row | Binder | IC50, neutralisation of recombinant human FGF23-stimulated proliferation of NIH-3T3 cells (fluorescence) [µg/mL]
7 | B7 | 1.29
8 | B8 | 1.63

What follows are binders tested against T1, human FGF23 (assay: ELISA, binding to human FGF23 (A450 against log mAb concentration)).

Row | Binder | EC50 [µg/mL]
9 | B1 | 0.0267
10 | B2 | 0.0238
11 | B3 | 0.0204
12 | B4 | 0.0181
13 | B9 | 0.0278
14 | B5 | 0.0248
15 | B6 | 0.0233

Target: T1, human FGF23
Assay: as above
Remark: another data set of the same source

Row | Binder | EC50 [µg/mL]
16 | B10 | 0.0295
17 | B7 | 0.0286
18 | B11 | 0.0273
19 | B12 | 0.0266
20 | B13 | 0.0262
21 | B8 | 0.0332
